Article doi:10.1101/2020.05.19.105320
Values belong to the molecule of their own block, whether it stands above or below them.

Biological target: H10CLPX Zinc binding domain (CLPXZBD) (human)
Experiment: SEC

stoichiometry N: 2
Molecule: H10CLPX Zinc binding domain (CLPXZBD) (domain or fragment)

stoichiometry N: 1
B1: H10PDIP38 (PDIP38 with an N-terminal H10-tag) (natural protein)
chain: SSRNRPEGKVLETVGVFEVPKQNGKYETGQLFLHSIFGYRGVVLFPWQARLYDRDVASAAPEKAENPAGHGSKEVKGKTHTYYQVLIDARDCPHISQRSQTEAVTFLANHDDSRALYAIPGLDYVSHEDILPYTSTDQVPIQHELFERFLLYDQTKAPPFVARETLRAWQEKNHPWLELSDVHRETTENIRVTVIPFYMGMREAQNSHVYWWRYCIRLENLDSDVVQLRERHWRIFSLSGTLETVRGRGVVGREPVLSKEQPAFQYSSHVSLQASSGHMWGTFRFERPDGSHFDVRIPPFSLESNKDEKTPPSGLHW
